This passage reports EC50 results from patent US20210179716A1.

In experiment [1] the target is human CD47 on the cell surface (human). The experiment can be described thus: cell binding to red blood cells in a 1:10 mixture of HT1080 cells and red blood cells.
For experiment [2] the target is unchanged. The experiment can be described thus: cell binding to HT1080 tumor cells in a 1:10 mixture with red blood cells.

As a reminder, the EC50 is the concentration needed to bring the measured effect to its halfway point. Regarding “monospecific anti-CD47 mAb 5F9 (antibody)”, the EC50 in experiment [1] and in experiment [2] was under 0.1 nM throughout.
